Laboratory results: US20200024348A1 (Alector, published 2020)

T1: human Sortilin (SORT1), full-length untagged, expressed on cells (human, UniProt Q99523 78-831)
T1 sequence: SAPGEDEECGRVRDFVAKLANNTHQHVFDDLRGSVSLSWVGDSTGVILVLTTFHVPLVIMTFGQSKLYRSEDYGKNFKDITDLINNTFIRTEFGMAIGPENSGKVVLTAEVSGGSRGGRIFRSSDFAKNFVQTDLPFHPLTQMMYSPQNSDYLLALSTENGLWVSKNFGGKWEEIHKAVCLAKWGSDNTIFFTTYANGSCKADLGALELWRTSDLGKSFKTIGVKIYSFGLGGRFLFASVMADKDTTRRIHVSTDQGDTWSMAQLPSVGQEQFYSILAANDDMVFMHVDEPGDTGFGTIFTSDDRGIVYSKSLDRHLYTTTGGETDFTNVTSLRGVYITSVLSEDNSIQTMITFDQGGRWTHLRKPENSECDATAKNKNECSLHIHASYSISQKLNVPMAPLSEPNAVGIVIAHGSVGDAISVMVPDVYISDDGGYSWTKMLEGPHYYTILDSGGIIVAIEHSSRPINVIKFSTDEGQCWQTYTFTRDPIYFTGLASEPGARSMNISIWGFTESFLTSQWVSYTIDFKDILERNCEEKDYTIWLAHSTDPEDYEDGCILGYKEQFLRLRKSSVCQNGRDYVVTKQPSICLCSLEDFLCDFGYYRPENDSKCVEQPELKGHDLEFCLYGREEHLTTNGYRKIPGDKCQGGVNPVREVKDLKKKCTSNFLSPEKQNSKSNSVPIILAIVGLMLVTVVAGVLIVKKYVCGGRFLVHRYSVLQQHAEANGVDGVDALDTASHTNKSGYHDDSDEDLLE

T2: histidine-tagged human SORT1 (R&D Systems) (human, UniProt Q99523 78-755)
T2 construct: Bought recombinant protein; also called His-tagged human SORT1; not shown: histidine tag
T2 sequence: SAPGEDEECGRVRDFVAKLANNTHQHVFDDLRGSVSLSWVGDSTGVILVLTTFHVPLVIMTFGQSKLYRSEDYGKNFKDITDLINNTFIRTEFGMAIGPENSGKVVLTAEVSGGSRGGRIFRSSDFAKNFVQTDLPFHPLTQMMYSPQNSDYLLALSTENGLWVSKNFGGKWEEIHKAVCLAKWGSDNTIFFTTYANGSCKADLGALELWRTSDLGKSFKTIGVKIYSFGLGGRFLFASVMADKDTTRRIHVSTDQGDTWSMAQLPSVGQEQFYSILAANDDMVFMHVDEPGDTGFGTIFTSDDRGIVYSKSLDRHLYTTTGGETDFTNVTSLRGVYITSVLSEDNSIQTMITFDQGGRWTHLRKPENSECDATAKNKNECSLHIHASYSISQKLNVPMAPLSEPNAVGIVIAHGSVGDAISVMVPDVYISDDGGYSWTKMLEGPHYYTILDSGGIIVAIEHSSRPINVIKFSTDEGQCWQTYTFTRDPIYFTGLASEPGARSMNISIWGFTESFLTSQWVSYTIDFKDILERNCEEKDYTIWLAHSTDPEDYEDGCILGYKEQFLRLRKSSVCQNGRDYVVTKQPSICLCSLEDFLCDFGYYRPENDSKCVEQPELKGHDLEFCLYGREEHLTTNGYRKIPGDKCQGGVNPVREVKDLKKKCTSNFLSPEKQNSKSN


Tests used:
[1] = target: T1, human Sortilin (SORT1), full-length …; experiment: cell-based or functional assay
[2] = target: T1, human Sortilin (SORT1), full-length …; experiment: cell-based or functional assay; remark: listed apart in the source
[3] = target: T1, human Sortilin (SORT1), full-length …; experiment: FACS on HEK293T cells expressing human SORT1, huIgG1; average of two experiments
Method: (§1) For the binding assay, stable HEK293T cells expressing human SORT1 were harvested by trypsinization, washed in PBS, counted and plated on 96-well u-bottom plates at 1×10⁵ cells/well. The plates were spun at 1,400 rpm for 3 minutes and primary anti-SORT1 or control antibodies were added in FACS buffer (PBS+2 FBS) and incubated on ice for one hour. Cells were subsequently centrifuged as before and washed thrice with FACS buffer. Cells were then incubated with anti-human APC conjugated secondary antibody (BD Biosciences) in FACS buffer for 30 minutes on ice. Cells were again washed three times with FACS buffer and analyzed on a BD FACS Canto or an Intellicyt Flow Cytometer. Binding was measured as median fluorescent intensity (MFI) in the […] channel of the GFP positive cell population.
All antibodies were tested on the huIgG1 backbone.

[4] = target: T1, human Sortilin (SORT1), full-length …; experiment: cell-based or functional assay; remark: listed apart in the source
[5] = target: T1, human Sortilin (SORT1), full-length …; experiment: FACS on HEK293T cells expressing human SORT1
Method: as §1

[6] = target: T2, histidine-tagged human SORT1 (R&D …); experiment: BLI, complete kinetic analysis with multiple concentrations of SORT1
[7] = target: T1, human Sortilin (SORT1), full-length …; experiment: cell-based or functional assay; remark: listed apart in the source
[8] = target: T2, histidine-tagged human SORT1 (R&D …); experiment: BLI (Octet RED96), antibody captured on anti-human IgG Fc sensor, 20 nM His-tagged human SORT1, 1:1 fit
Method: The G1m3 or G1m(f) allotype with L234A/L235A/P331S (“LALAPS” motif) mutations was used as a background (Jefferis R and Lefranc M-P, Mabs, 2009 July-August; 1(4): 332-338). […] Bio-layer interferometry (BLI) data was collected at a rate of 5 Hz at 25° C. on a Pall ForteBio Octet RED96 instrument. Data analysis was performed using ForteBio Data Analysis Software, version 9.0. Standard kinetic buffer (PBS, 0.1 BSA, 0.02 Tween-20, pH 7.2) was used for the assay and for preparing reagents. For all assays, sensor tips were equilibrated in buffer prior to analysis.
Twenty nM histidine-tagged human SORT1 (R&D Systems, Minneapolis, Minn.) was then bound to the captured anti-SORT1 surface (200 s association time, 1200 s dissociation time). […] Full, local fitting using a 1:1 interaction model was applied to extract association and dissociation rate constants (kₐ and kd, respectively) for each N33 mutant. Affinity constants (KD) were calculated from the ratio […]. Different amino acid substitutions were made at N33 and tested for binding to SORT1 in an off-rate screen (under non-stress conditions) as shown in Table 9.

Binder | DR at 1.25 nM antibody (IgG): percent SORT1 downregulation, U251 cells [2] [%] | Kd [3] [nM] | % DR at 150 nM antibody (IgG), U251 cells [4] [%] | EC50 (pM): downregulation (DR) of cell surface SORT1, U251 cells, FACS [4] [pM] | Kd [6] [nM] | other results
S-60-3 (antibody, IgG1, V domains shown, Tested on the huIgG1 (WT) backbone) VH: QVQLQESGPGLVKPSETLSLTCAVSGYSISSGYYWGWIRQPPGKGLEWIGTIYHSGSTYYNPSLKSRVTISVDTSKNQFSLKLSSVTAADTAVYYCARQGSIKQGYYGMDVWGQGTTVTVSS VL: DIVMTQSPLSLPVTPGEPASISCRSSQSLLRSNGYNYLDWYLQKPGQPPQLLIYLGSNRVSGVPDRFSGSGSGTDFTLKISRVEAEDVGVYYCMQQQETPLTFGGGTKVEIK | 61.5 | 0.856 | – | – | – | DR EC50 (M): down-regulation of cell surface SORT1, U251 cells, FACS [1]: 2.69e-10 M; DR at 0.6 nM antibody (IgG): percent SORT1 downregulation, U251 cells [1]: 43%
S-60-15.1 [N33T] as huIgG1 (antibody, V domains shown, huIgG1 without the LALAPS mutations) VH: QVQLQESGPGLVKPSETLSLTCAVSGYSISSGYYWGWIRQPPGKGLEWIGTIYHSGSTYYNPSLKSRVTISVDTSKNQFSLKLSSVTAADTAVYYCARQGSIKQGYYGMDVWGQGTTVTVSS VL: DIVMTQSPLSLPVTPGEPASISCRSSQSLLRSTGYNYLDWYLQKPGQSPQLLIYLGSNRASGVPDRFSGSGSGTDFTLKISRAEAEDVGVYYCMQQQEAPLTFGGGTKVEIK | – | – | 69.3 | 72.6 | 0.298 | Kd [5]: 0.365 nM
S-60-24 (antibody, IgG1, V domains shown, Tested on the huIgG1 (WT) backbone) VH: QVQLQESGPGLVKPSETLSLTCAVSGYSISSGYYWGWIRQPPGKGLEWIGTIYHSGSTYYNPSLKSRVTISVDTSKNQFSLKLSSVTAADTAVYYCARQGSIKQGYYGMDVWGQGTTVTVSS VL: DIVMTQSPLSLPVTPGESASISCRSSQGLLRSNGYNYLDWYLQKPGQSPQLLIYLGSNRASGVPDRFSGSGSGTDFTLKISRVEAEDVGVYYCMQQQEAPLTFGGGTKVEIK | 65.2 | 0.755 | – | – | – | DR at 0.63 nM antibody (IgG): percent SORT1 downregulation, U251 cells [7]: 81.5%
S-60-15.1 [N33T] LALAPS (antibody, human IgG1, kappa, L234A L235A, V domains shown, huIgG1 LALAPS) VH: QVQLQESGPGLVKPSETLSLTCAVSGYSISSGYYWGWIRQPPGKGLEWIGTIYHSGSTYYNPSLKSRVTISVDTSKNQFSLKLSSVTAADTAVYYCARQGSIKQGYYGMDVWGQGTTVTVSS VL: DIVMTQSPLSLPVTPGEPASISCRSSQSLLRSTGYNYLDWYLQKPGQSPQLLIYLGSNRASGVPDRFSGSGSGTDFTLKISRAEAEDVGVYYCMQQQEAPLTFGGGTKVEIKR | – | – | 70.3 | 104 | 0.26 | –
S-60-15.5 [N33D] (antibody, V domains shown, also called completely deamidated version of S-60-15) VH: QVQLQESGPGLVKPSETLSLTCAVSGYSISSGYYWGWIRQPPGKGLEWIGTIYHSGSTYYNPSLKSRVTISVDTSKNQFSLKLSSVTAADTAVYYCARQGSIKQGYYGMDVWGQGTTVTVSS VL: DIVMTQSPLSLPVTPGEPASISCRSSQSLLRSDGYNYLDWYLQKPGQSPQLLIYLGSNRASGVPDRFSGSGSGTDFTLKISRAEAEDVGVYYCMQQQEAPLTFGGGTKVEIKR | – | – | 3.4 | – | – | Kd [8]: 1 nM
